This is an account of results in article PMC6468243, “Mechanistic characterization of the DEAD-box RNA helicase Ded1 from yeast as revealed by a novel technique using single-molecule magnetic tweezers”.

For the series, the target named is Ded1-His6 (Saccharomyces cerevisiae? (paper says …, UniProt P06634 1-604)). Description: competition (magnetic tweezers displacement assay); 1 mM ATP; 10 nM Ded1; against 200 nM 5'ss-11 bp RNA; effective competitor; Magnetic tweezers, Fhold 7 pN, 10 nM Ded1, 1 mM ATP, 200 nM 5'ss-11 bp RNA; buffer, salt, pH and temperature not in the material. Table 1 and Figures 4-6 (duplex displacement/unwinding kinetics) left out as enzyme activity without a direct binding read-out. Particulars: protein: recombinant; tags: His6 (pET22b); single strand.
Sequence of Ded1-His6 (Saccharomyces cerevisiae? (P06634 whole entry): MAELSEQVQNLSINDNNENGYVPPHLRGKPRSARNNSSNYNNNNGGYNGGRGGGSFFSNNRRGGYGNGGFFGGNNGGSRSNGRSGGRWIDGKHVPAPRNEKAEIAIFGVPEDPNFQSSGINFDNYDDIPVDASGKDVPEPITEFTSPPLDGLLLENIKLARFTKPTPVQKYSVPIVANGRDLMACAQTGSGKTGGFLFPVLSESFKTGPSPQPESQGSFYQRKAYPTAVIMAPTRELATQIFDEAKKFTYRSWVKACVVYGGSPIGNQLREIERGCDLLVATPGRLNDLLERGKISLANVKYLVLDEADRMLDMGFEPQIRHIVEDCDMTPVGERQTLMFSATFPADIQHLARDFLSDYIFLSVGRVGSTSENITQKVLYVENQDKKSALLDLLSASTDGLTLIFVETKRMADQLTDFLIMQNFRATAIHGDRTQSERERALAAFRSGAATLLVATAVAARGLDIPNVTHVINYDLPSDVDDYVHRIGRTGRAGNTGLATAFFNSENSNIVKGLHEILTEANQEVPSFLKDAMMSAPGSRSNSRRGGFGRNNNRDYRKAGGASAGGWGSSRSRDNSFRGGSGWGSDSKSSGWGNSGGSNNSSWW

As to UCAUACUUUUCUUUUCUUUUCCAUC (ssRNA) [ssRNA01 (RNA01)], the binding result is reported as “binds”.
